Target: GST-GSK3β fusion protein (human, UniProt P49841 1-420)
Experiment: co-IP

Chain of GST-GSK3β fusion protein (P49841 whole entry, the tested form may be a part): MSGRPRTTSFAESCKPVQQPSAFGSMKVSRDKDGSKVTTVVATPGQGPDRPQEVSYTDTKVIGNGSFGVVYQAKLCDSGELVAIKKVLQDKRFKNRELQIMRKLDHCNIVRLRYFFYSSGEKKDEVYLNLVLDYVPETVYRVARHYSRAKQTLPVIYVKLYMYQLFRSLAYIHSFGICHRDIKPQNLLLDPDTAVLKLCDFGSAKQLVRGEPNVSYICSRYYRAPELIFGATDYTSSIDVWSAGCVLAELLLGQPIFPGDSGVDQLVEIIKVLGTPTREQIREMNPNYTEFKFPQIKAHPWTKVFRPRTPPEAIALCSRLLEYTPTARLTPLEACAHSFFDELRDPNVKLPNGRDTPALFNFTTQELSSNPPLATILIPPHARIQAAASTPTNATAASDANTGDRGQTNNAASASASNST

binding result: binds
B1: GST-FANCL fusion protein (natural protein, human, UniProt Q9NW38 1-375, looked up)
chain: MAVTEASLLRQCPLLLPQNRSKTVYEGFISAQGRDFHLRIVLPEDLQLKNARLLCSWQLRTILSGYHRIVQQRMQHSPDLMSFMMELKMLLEVALKNRQELYALPPPPQFYSSLIEEIGTLGWDKLVYADTCFSTIKLKAEDASGREHLITLKLKAKYPAESPDYFVDFPVPFCASWTPQSSLISIYSQFLAAIESLKAFWDVMDEIDEKTWVLEPEKPPRSATARRIALGNNVSINIEVDPRHPTMLPECFFLGADHVVKPLGIKLSRNIHLWDPENSVLQNLKDVLEIDFPARAILEKSDFTMDCGICYAYQLDGTIPDQVCDNSQCGQPFHQICLYEWLRGLLTSRQSFNIIFGECPYCSKPITLKMSGRKH

Source: PMC3744951 (Molecular Biology of the Cell, 2013)
